Source: paper PMC7366381

Substrate: O=CO
Assay: purified protein
Conditions: 1 mM benzyl viologen, pH 7.5, 25 °C, anaerobic, buffer 50 mM phosphate or 25 mM MES/TAPS/HEPES/K acetate (Figure 3 legend)

B1: EcFDH-H (FDH) (Escherichia coli K-12) (protein)
chain: MKKVVTVCPYCASGCKINLVVDNGKIVRAEAAQGKTNQGTLCLKGYYGWDFINDTQILTPRLKTPMIRRQRGGKLEPVSWDEALNYVAERLSAIKEKYGPDAIQTTGSSRGTGNETNYVMQKFARAVIGTNNVDCCARVUHGPSVAGLHQSVGNGAMSNAINEIDNTDLVFVFGYNPADSHPIVANHVINAKRNGAKIIVCDPRKIETARIADMHIALKNGSNIALLNAMGHVIIEENLYDKAFVASRTEGFEEYRKIVEGYTPESVEDITGVSASEIRQAARMYAQAKSAAILWGMGVTQFYQGVETVRSLTSLAMLTGNLGKPHAGVNPVRGQNNVQGACDMGALPDTYPGYQYVKDPANREKFAKAWGVESLPAHTGYRISELPHRAAHGEVRAAYIMGEDPLQTDAELSAVRKAFEDLELVIVQDIFMTKTASAADVILPSTSWGEHEGVFTAADRGFQRFFKAVEPKWDLKTDWQIISEIATRMGYPMHYNNTQEIWDELRHLCPDFYGATYEKMGELGFIQWPCRDTSDADQGTSYLFKEKFDTPNGLAQFFTCDWVAPIDKLTDEYPMVLSTVREVGHYSCRSMTGNCAALAALADEPGYAQINTEDAKRLGIEDEALVWVHSRKGKIITRAQVSDRPNKGAIYMTYQWWIGACNELVTENLSPITKTPEYKYCAVRVEPIADQRAAEQYVIDEYNKLKTRLREAALA
- Km (labelled compound): 158 ± 8 µM
- Km (two highest formate points neglected in fit): 58 ± 8 µM
